Article PMC3508667 (Biochemistry, 2012)
Residue numbers refer to the chain shown, from its start.

B1: (Phe94)-scFv (scFv, V domains shown)
VH: DIQLQESGPSLVKPSQTLSLTCSVTGDSITSDYWSWIRKFPGNRLEYMGYVSYSGSTYYNPSLKSRISITRDTSKNQYYLDLNSVTTEDTATYYCANWDGDYWGQGTLVTVSA
VL: DIVLTQSPATLSVTPGNSVSLSCRASQSIGNNLHWYQQKSHESPRLLIKYASQSISGIPSRFSGSGSGTDFTLSINSVETEDFGMYFCQQSNSFPYTFGGGTKLEIT
B2: (Phe34)-scFv (scFv, V domains shown)
VH: B1 VH with W34F
VL: B1 VL with F94W
B3: ^5FW(Phe36)-scFv (scFv, V domains shown)
VH: B1 VH with W36F
VL: B1 VL with F94W
B4: (Phe36)-scFv (scFv, V domains shown)
VH: B1 VH with W36F
VL: B1 VL with F94W
B5: ^5FW(Phe94)-scFv (scFv, V domains shown)
VH: B1 VH
VL: B1 VL
B6: ^5FW(Phe34)-scFv (scFv, V domains shown)
VH: B1 VH with W34F
VL: B1 VL with F94W

The molecules below were run against hen egg white lysozyme (Gallus gallus (hen egg white), UniProt P00698) (assay: SPR).
Sequence of hen egg white lysozyme (P00698 19-147): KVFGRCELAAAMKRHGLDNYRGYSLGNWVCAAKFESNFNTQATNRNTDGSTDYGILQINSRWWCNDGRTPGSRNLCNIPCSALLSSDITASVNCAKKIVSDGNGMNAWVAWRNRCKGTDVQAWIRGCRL

**Q.** With B1 as the molecule, how does the Kd read?
**A.** The Kd was 0.272 nM.

**Q.** Which Kd does the source give for B2 here?
**A.** Its Kd is 0.266 nM.

**Q.** How did the Kd turn out when B3 was run?
**A.** The Kd was 4.22 nM.

**Q.** With B4 as the molecule, how does the Kd read?
**A.** The Kd was 0.559 nM.

**Q.** How did the Kd turn out when B5 was run?
**A.** The Kd was 1.99 nM.

**Q.** Which Kd does the source give for B6 here?
**A.** Its Kd is 1.22 nM.

The molecules below were run against hen egg white lysozyme (hen) (UniProt P00698) (assay: SPR).
Sequence of hen egg white lysozyme (hen) (P00698 19-147): as above

**Q.** “^5FW-scFv (HyHEL10 scFv, all Trp residues substituted with 5-fluorotryptophan)” was tested. Which Kd did it give?
**A.** The Kd was 4.03 nM.
